# Laboratory results: patent US20100145006A1, “SUPRAVALENT COMPOUNDS” (priority 2005, published 2010)
# Bridges are numbered along the chain shown (N, C = ends). Where no end group is shown, it is not given here. Side-chain parts run from the residue outwards. [ ]: non-standard residue; d: D form. 1Nal = N[C@@H](Cc1cccc2ccccc12)C(=O)O
# Tests used:
# TF-1 Cells [1] = test: TF-1 proliferation assay (MTS, viable cell number), EPO-like activity; type: cell-based, human; conditions: normalized plots
# Procedure: An experiment was performed in a standard TF-1 cell assay as recommended by the European Pharmacopoe for the determination of EPO-like activity in vitro (please also see below). Basically, TF-1 cells (their proliferation being dependent from the presence of EPO-like activity) are cultured in the presence various concentrations of EPO or EPO-mimetic substances. The resulting cell numbers are quantified using colorimetric MTT-assay and photometric measurements.
# In a TF-1 proliferation assay, TF-1 cells are seeded and cultured for several days in varying concentrations of EPO or EPO mimetic peptides in a multi-well plate.
# For optimal results TF-1 cells should be cultured for two days in the absence of any cytokine (starved) before starting the assay. Three days after starting the assay, cell proliferation is measured indirectly by assaying the number of viable cells.
# A tetrazolium reagent, called MTS, is added which is reduced to coloured formazan. This reaction depends on NADH and NADPH, in other words depends on mitochondrial activity. The amount of formazan is measured spectrophotometrically. Using a range of known cell numbers for calibration, it is possible to determine the absolute number of viable cells present under each condition. The principal design is also illustrated in FIG. 24.
# The activity of a certain agent in this assay is determined by: • 1. assessing whether this agent causes an increase in the number of viable cells at a certain concentration, and • 2. at which concentration this agent exerts a half-maximum effect (determination of the EC50).
# TF-1 Cells [2] = test: Proliferation assay with TF-1 cells by MTT (printed MU), peptide monomers; type: cell-based, human; conditions: TF-1 proliferation, MTT-assay data, GraphPad dose-response
# Procedure: Proliferation Assay with TF-1 Cells by MU
# TF-1 Cells in logarithmic growth phase (˜2.10^5-1.10^6 cells/ml; RPMI medium; 20% fetal calf serum; supplemented with Penicillin, streptomycin, L-Glutamine; 0.5 ng/ml Interleukin 3) are washed (centrifuge 5 min. 1500 rpm and resuspended in RPMI complete without IL3 at 500.000 cells/ml) and precultured before start of the assay for 24 h without IL-3. At the next day the cells are seeded in 24- or 96-well plates usually using at least 6 concentrations and 4 wells per concentration containing at least 10.000 cells/well per agent to be tested. Each experiment includes controls comprising recombinant EPO as a positive control agent and wells without addition of cytokine as negative control agent. […]
# At day 4, prior to start of the analysis, a dilution series of a known number of TF-1 cells is prepared in a number of wells (0/2500/5000/10000/20000/50000 cells/well in 100 μl medium). These wells are treated in the same way as the test wells and later provide a calibration curve from which cell numbers can be determined. […] 25 μl of 10% sodium dodecyl sulfate in water are added to each well prior to measurement E492 in an ELISA Reader.
# Using graphical evaluations as shown in FIGS. 17 and 18 based on calculations of the dose-response relationship using the program GraphPad the following EC50 values were determined on the basis of MU-assay data: […]
# [3] = molecular target: T1, erythropoietin receptor (EPOR) on human TF-1 cells (human, UniProt P19235 25-508); test: cell-based or functional assay
# T1 sequence (looked up): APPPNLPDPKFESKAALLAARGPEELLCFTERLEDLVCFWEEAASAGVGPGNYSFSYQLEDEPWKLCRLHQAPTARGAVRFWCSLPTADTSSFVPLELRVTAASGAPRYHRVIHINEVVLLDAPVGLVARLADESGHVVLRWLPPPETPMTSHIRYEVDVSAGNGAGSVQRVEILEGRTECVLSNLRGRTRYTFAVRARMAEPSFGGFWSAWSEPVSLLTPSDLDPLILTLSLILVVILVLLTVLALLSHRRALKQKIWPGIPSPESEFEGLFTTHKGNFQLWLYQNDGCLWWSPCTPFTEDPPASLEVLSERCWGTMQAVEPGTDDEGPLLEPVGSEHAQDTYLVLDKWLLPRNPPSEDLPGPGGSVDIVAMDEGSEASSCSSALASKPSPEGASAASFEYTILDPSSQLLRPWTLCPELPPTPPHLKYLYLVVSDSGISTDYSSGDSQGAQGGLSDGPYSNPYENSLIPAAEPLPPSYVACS
molecule,measurement,setting,value
"AGEM40_HES: peptide (AGEM40) HESylated according to the supravalence principle (Ac-C([maleimide-HES 130 kD])GGTYSCHFGKLT[1Nal]VCKKQRGGGTYSCHFGKLT[1Nal]VCKKQRG-NH2; disulfide 7-16, 27-36 (inferred))",efficacy and potency compared with other EPO mimetic peptides,TF-1 Cells [1],highly effective and potent
Ac-GGTYSCHFGKLT-Na1-VCKKQRG-Am (Ac-GGTYSCHFGKLT[1Nal]VCKKQRG-NH2; cysteine pairing not given here) [BB68],efficacy and potency compared with other EPO mimetic peptides,TF-1 Cells [1],even more effective than EMP1 and 8849
same,efficacy and potency compared with other EPO mimetic peptides,TF-1 Cells [1]; listed as B868,improved effect
GGTYSCHFGGLTWVCKPQGG,EC50 values of exemplary peptide monomers,TF-1 Cells [2],no activity
"GGTYSCHFGKLTWVCKKQGG [SEQ ID NO 2, EPO mimetic peptide monomer]",efficacy and potency compared with other EPO mimetic peptides,TF-1 Cells [1],in the same range as EMP1
GGTYSCHFGRLTWVCKPQGG (disulfide 6-15 (inferred)) [SEQ ID NO 5 peptide GGTYSCHFGRLTWVCKPQGG],"EC50, TF-1 cell proliferation (MTT assay)",[3],5.16 µM
"Ac-GGTYSCHFGKLTWVCKKQGG (disulfide 6-15 (inferred)) [SEQ ID NO 2 peptide GGTYSCHFGKLTWVCKKQGG (BB49, monomer)]","EC50, TF-1 cell proliferation (MTT assay)",[3],3.28 µM
GGTYSCHFGPLTWVCKKQGG (disulfide 6-15 (inferred)) [peptide GGTYSCHFGPLTWVCKKQGG],"EC50, TF-1 cell proliferation (MTT assay)",[3],2.52 µM
GGTYSCHFGRLTWVCKKQGG (disulfide 6-15 (inferred)) [SEQ ID NO 6 peptide GGTYSCHFGRLTWVCKKQGG],"EC50, TF-1 cell proliferation (MTT assay)",[3],4.97 µM
GGTYSCHFAKLTWVCKKQGG (disulfide 6-15 (inferred)) [peptide GGTYSCHFAKLTWVCKKQGG],"EC50, TF-1 cell proliferation (MTT assay)",[3],5.04 µM
GGTYSCHFGKLTWVCKPQGG (disulfide 6-15 (inferred)) [SEQ ID NO 4 peptide GGTYSCHFGKLTWVCKPQGG],"EC50, TF-1 cell proliferation (MTT assay)",[3],4.66 µM
